{"source": "paper PMC11615322", "about": "(Nature Communications, 2024)", "binders": {"B1": {"name": "His-SRX (natural protein)", "chain": "not shown"}}, "target": "GST-Keap1 (human, UniProt Q14145 1-624)", "sequence (Q14145 whole entry)": "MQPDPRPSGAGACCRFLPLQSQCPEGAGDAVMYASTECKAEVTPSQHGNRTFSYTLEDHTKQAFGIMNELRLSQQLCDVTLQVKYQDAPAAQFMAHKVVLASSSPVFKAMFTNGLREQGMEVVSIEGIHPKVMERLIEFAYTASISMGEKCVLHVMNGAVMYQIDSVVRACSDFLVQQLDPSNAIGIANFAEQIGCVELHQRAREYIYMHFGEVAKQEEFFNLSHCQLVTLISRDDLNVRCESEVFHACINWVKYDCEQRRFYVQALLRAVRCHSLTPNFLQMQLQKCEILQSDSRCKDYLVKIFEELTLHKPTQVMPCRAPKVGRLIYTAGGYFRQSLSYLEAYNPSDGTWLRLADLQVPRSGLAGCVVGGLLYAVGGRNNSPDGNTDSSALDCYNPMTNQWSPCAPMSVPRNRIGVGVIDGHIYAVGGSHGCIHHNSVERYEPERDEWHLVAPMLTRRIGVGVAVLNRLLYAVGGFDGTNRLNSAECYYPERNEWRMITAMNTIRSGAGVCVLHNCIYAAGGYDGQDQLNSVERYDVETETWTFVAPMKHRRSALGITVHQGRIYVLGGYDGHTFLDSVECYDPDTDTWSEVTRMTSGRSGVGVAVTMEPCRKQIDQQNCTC", "test": "pull-down", "data": [{"binder": "B1", "values": [{"measurement": "binding result", "value": "binds"}]}]}
